Here are results for 2 substances from EP2105446A2.

Assay [1] addresses MPL-zalpha11 polypeptide chimera (MPL extracellular and TM domain fused to the zalpha11 intracellular signaling domain), expressed on BaF3 cells (human) (UniProt P40238). The assay can be described thus: cell-based or functional assay.
Assay [2] deals with factor present in the activated CD3+ selected human T-cell conditioned media (human). Description: cell-based or functional assay.

thrombopoietin (TPO) (ligand): in assay [1], the proliferation of BaF3/MPL-zalpha11 cells (Alamar Blue) (fold over background) was determined as 10. In assay [2], “zalpha11-Fc4 (mutant) soluble receptor (zalpha11 extracellular domain fused C-terminally to human IgG/Fc) (from UniProt Q9HBE5 20-237) (Fc fusion)” showed an inhibition of BaF3/Zalpha11 cell growth (Alamar Blue), concentration giving complete inhibition of 10 µg/mL and a titration of soluble receptor, lowest concentration giving complete inhibition of BaF3/Zalpha11 growth of 1.5 µg/mL.
